From PMC10881513 (Nature Communications, 2024) come the findings set out here.

The target of this assay is T1, ASFV RNA polymerase subunit vRPB1 (African swine fever virus, strain BA71V, UniProt P42486 1-1450).
T1 sequence: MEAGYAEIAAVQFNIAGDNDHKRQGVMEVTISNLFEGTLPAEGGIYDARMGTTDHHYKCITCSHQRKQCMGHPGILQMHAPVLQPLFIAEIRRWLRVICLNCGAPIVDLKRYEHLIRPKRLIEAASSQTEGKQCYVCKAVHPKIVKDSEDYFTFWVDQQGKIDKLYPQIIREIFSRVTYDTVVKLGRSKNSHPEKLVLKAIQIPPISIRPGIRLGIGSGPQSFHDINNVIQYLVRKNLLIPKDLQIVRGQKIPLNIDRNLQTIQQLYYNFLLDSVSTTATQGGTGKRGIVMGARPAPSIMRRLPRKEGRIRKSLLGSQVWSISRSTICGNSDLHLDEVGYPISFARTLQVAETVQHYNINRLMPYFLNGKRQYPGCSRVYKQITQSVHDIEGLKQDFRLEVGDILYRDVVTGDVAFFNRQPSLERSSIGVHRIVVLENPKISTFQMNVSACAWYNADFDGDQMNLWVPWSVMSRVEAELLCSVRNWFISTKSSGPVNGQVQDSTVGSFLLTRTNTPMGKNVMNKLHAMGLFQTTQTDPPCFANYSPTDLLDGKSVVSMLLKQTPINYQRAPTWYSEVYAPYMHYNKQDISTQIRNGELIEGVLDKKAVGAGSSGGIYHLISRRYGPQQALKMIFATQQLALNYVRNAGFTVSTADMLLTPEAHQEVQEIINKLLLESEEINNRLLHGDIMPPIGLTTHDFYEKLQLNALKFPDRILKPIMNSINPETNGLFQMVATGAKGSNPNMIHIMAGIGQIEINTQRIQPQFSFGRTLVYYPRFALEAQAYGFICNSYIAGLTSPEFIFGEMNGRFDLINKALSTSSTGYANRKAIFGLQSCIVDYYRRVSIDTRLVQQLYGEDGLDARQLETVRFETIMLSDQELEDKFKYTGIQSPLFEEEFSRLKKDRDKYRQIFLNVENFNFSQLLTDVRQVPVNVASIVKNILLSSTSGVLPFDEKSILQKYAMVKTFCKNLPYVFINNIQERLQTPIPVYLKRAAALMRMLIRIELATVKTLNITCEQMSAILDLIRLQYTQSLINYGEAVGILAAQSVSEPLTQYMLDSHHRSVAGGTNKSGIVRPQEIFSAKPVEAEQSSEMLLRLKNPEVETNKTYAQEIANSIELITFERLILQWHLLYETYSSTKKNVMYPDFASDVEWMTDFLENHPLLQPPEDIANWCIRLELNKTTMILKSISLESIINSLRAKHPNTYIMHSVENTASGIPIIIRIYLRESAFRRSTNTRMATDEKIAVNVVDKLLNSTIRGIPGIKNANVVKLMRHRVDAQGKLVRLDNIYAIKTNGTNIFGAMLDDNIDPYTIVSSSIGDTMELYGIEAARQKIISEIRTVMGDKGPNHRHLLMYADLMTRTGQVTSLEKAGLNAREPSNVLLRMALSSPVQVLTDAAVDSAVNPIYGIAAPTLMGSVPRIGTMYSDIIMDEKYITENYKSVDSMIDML
The assay is described as follows: cryo-EM structure. Conditions: both partners purified.

B1: ASFV RNA polymerase subunit vRPB2, His-ZZ-tag cleaved with TEV (natural protein)
chain: MEPLRPQITYGPIETVDNEELTEADMLSFISAAVNSTGLIGYNIKSFDDLMDNGIPQIVKQMFNVDITYKDQRDHTEIDKLRESVQIQFNFTDVNIERPQHRNYSQGNKINLLPNKARLCGLSYSGPVNLAAEVILTAHYSNGRQEVKRASIPPFQVSTFPIMRGSNRCHTHHLSKTAKKEIGEDPNEPGGYFIARGGEWVVDLLENIRFNTLHIHYHTMQQGNNEIIRGEFISQPGGAFENSSQIIIRYMTTGAITIEINSTKFSKLRIPWYLIFRMFGMTGDDSIIEQVVFDLESNSPVNTFMIEILEKSIHVLDPIFQPVQHEPNREKIIQFLSEKVSKFVSNPSAYKSDENAVQYLNERQLTILDKILLPHMGQTADTRVRKLRFLGLLIHKILLVIMNVFPPTDRDSYRTKRVHGSGVSLAKAFKAIFNTSVIAPIINGFKELLKQTAFEELTQRNIIEAFSAALSKNTASDLNRSMEQSIISGNKTIMVRQRPIVNRVSTQSLERKNLLNTISALRTVNTHNTTNASKQTERADMMRRVHASYPGYICVAQSADTGEKVGMSKQLAITANVCTAGEVLSLKQRLLSDPAIQQLADVSNKDIVRKGLARVFINGEWIGCCTNAFELAQRYRMFRREGKIVHPHTTIYWDSMVDEVEFWLDVGRLTRPLLIVDNNIEKYNQACYKAAEARKKGDKDWEKHKIPFIQNTRFTSQMAKDILAGTLTLEDLVAQGICEFITPEEAENCLVAFSIIELRKHKHDVTRRFTHVDVPQAILGLAALVSPYANCTQPARVTYETNQGRQTGGWYCFSWPYRVDMNRFFQFYNEMPLVKTIAHNYVIPNGLNTIVAYMIYGGYNQEDSVIVSQSFIDRGGFAGTFYREEKVELESDIESFGKPDPLITKNLKPGANYEKLVDGFVPVGTVVKKGDIIIGKVAKIRGEKDELNKYIDRSVMYGFDEPAVVDAVMRPHGPNDEIFGLMRLRYERNLNIGDKMSSRSGNKGIAALALPTSDMPFTEDGLQPDLIVNPHSHPSRMTNGQMIETTVGLANALQGVVTDGTAFLPINVQLLSERLAQEGLRFNGCQKMFNGQTGEYFDAAIFIGPTYHQRLQKFVLDDRYAVASYGPTDALTGQPLDGKRSHGGLRLGEMEHWVLTAQGAMQTIIEKSHDDSDGCISYICRNCGEPAIYNASHPIYKCMNCDVQADIGMVDSRRSSIVFQHEMRAANVNITSVLSPRVFQPA
Consider B1, for which the binding result is recorded as “binds”.
